From patent US20140134737, “Alternative Splicing Modulators and Splice Variants and Their Use in the Control and Detection of Pluripotency and Differentiation” (Governing Council of the University of Toronto, published 2014)

T1: FOXP1-ES forkhead domain (exon 18b) (Homo sapiens)
T1 chain: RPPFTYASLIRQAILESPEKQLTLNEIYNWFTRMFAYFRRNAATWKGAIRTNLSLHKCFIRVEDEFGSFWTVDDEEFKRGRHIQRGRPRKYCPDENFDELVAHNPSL

T2: FOXP1 forkhead domain (canonical, exon 18) (Homo sapiens, UniProt Q9H334 SEQ:465-555)
T2 sequence: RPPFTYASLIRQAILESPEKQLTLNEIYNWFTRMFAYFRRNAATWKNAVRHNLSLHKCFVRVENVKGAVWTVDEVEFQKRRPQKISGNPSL

B1: CGCGACAT x2 mutant (dsDNA)
DNA 1: CGCGACATCCCGCGACAT
DNA 2: ATGTCGCGGGATGTCGCG
B2: AATGGACA x2 mutant (dsDNA)
DNA 1: AATGGACACCAATGGACA
DNA 2: TGTCCATTGGTGTCCATT
B3: GGACACAA x2 mutant (dsDNA)
DNA 1: GGACACAACCGGACACAA
DNA 2: TTGTGTCCGGTTGTGTCC
B4: AATAAACA x2 probe (dsDNA)
DNA 1: AATAAACACCAATAAACA
DNA 2: TGTTTATTGGTGTTTATT
B5: ATGCAGGA x2 mutant (dsDNA)
DNA 1: ATGCAGGACCATGCAGGA
DNA 2: TCCTGCATGGTCCTGCAT
B6: CTATCCAA x2 mutant (dsDNA)
DNA 1: CTATCCAACCCTATCCAA
DNA 2: TTGGATAGGGTTGGATAG
B7: AACCCCAA x2 mutant (dsDNA)
DNA 1: AACCCCAACCAACCCCAA
DNA 2: TTGGGGTTGGTTGGGGTT
B8: CCACTCAA x2 mutant (dsDNA)
DNA 1: CCACTCAACCCCACTCAA
DNA 2: TTGAGTGGGGTTGAGTGG

Target: T1, FOXP1-ES forkhead domain (exon 18b)
Assay: EMSA; no appreciable shift
Details: tags: GST fusion; label: radiolabeled
Protocol: (§1) FIG. 2(C) is an Electrophoresis Mobility Shift Assay (EMSA) validating PBM-derived consensus DNA binding sites for FOXP1 and FOXP1-ES. Radiolabeled dsDNA probes containing two copies of GTAAACAA (top left panel), AATAAACA (top middle panel) or CGATACAA (top right panel), or two copies of mutant versions of these sequences GGACACAA (bottom left panel), AATGGACA (bottom middle panel) or CGCGACAT (bottom right panel) were incubated in the absence (lanes 1, 9 and 19) or in the presence of increasing amounts (0.2 to 3.2 pmol) of recombinant GST-FOXP1 or GST-FOXP1-ES proteins. Positions mutated in the probe sequences are underlined. Shifted protein-dsDNA complexes are indicated by arrows and free dsDNA probe is indicated by an asterisk.

Binder | binding result
B1 | no binding
B2 | no binding
B3 | no binding

target: T2, FOXP1 forkhead domain (canonical, exon …); assay: EMSA; no appreciable shift; details: tags: GST fusion; label: radiolabeled
Protocol: as §1

Binder | binding result
B1 | no binding
B2 | no binding
B3 | no binding

Target: T1, FOXP1-ES forkhead domain (exon 18b)
Assay: EMSA; preferentially bound by FOXP1-ES
Details: tags: GST fusion; label: radiolabeled
Protocol: as §1

Binder | binding result
B4 | binds

Target: T1, FOXP1-ES forkhead domain (exon 18b)
Assay: EMSA; no appreciable shift
Details: tags: GST fusion; label: radiolabeled
Remark: another data set of the same source
Protocol: (§2) Radiolabeled dsDNA probes containing two copies of each 8-mer (top panels), or two copies of mutant versions of these sequences CCACTCAA, ATGCAGGA, CTATCCAA and AACCCCAA (bottom panels) were incubated in the absence (lanes 1, 10, 19 and 28) or in the presence of increasing amounts (0.2 to 3.2 pmol) of recombinant GST-FOXP1 or GST-FOXP1-ES proteins. Positions mutated in the probe sequences are underlined. Shifted protein-dsDNA complexes are indicated by arrows and free dsDNA probe is indicated by an asterisk.

Binder | binding result
B5 | no binding
B6 | no binding
B7 | no binding
B8 | no binding

target: T2, FOXP1 forkhead domain (canonical, exon …); assay: EMSA; no appreciable shift; details: tags: GST fusion; label: radiolabeled; remark: another data set of the same source
Protocol: as §2

Binder | binding result
B5 | no binding
B6 | no binding
B7 | no binding
B8 | no binding
